The text below walks through data of publication doi:10.1101/2024.12.05.626995 (bioRxiv, 2024).

The target of the experiment is T1, GST-tagged mature full-length GET3b (Arabidopsis thaliana, UniProt A1L4Y1 68-411).
T1 sequence: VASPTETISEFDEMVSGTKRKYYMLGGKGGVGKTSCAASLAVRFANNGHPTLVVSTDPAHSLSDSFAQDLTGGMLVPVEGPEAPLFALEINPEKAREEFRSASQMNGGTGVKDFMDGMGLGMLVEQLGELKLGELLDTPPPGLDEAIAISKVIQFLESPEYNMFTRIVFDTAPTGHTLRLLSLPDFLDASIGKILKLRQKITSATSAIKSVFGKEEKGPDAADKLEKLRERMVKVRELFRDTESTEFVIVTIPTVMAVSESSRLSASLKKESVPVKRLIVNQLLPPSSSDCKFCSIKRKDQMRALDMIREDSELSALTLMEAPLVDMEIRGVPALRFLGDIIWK
Kind of experiment: pull-down.

B1: His-tagged C-terminal region of ALB3 (aa 350-462) (domain or fragment)
chain: VYLRKLGGAKPNMDENASKIISAGRAKRSIAQPDDAGERFRQLKEQEKRSKKNKAVAKDTVELVEESQSESEEGSDDEEEEAREGALASSTTSKPLPEVGQRRSKRSKRKRTV
With B1, the binding result is “binds”.

B2: His-tagged C-terminal region of ALB4 (aa 334-499) (domain or fragment)
chain: VWLQKYGGAKNPVEKFTNLVTKEDKTQQIEKSFSEPLVQKSVSELKIPREKGGEKVTPECPKPGERFRLLKEQEAKRRREKEERQKAEAALSNQNTDKAHEQDEKSDTAIVAEDDKKTELSAVDETSDGTVAVNGKPSIQKDETTNGTFGIGHDTEQQHSHETEKR
As for B2, the binding result is on record as “binds”.
